{"source": "IntAct's records for PubMed 18524952", "parents": {"B1": {"name": "DNA replication licensing factor MCM3 (Mus musculus), P25206 (parent)", "chain": "MAGTVVLDDVELREAQRDYLDFLDDEEDQGIYQNKVRELISDNQYRLIVSVNDLRRKNEKRANRLLNNAFEELVAFQRALKDFVASIDATYAKQYEEFYIGLEGSFGSKHVSPRTLTSCFLSCVVCVEGIVTKCSLVRPKVVRSVHYCPATKKTIERRYSDLTTLVAFPSSSVYPTKDEENNPLETEYGLSVYKDHQTITIQEMPEKAPAGQLPRSVDVILDDDLVDKVKPGDRIQVVGTYRCLPGKKGCYTSGTFRTVLIACNVKQMSKDIQPAFSADDIAKIKKFSKTRSKDVFEQLARSLAPSIHGHDYVKKAILCLLLGGVERELENGSHIRGDINILLIGDPSVAKSQLLRYVLCTAPRAIPTTGRGSSGVGLTAAVTTDQETGERRLEAGAMVLADRGVVCIDEFDKMSDMDRTAIHEVMEQGRVTIAKAGIHARLNARCSVLAAANPVYGRYDQYKTPMENIGLQDSLLSRFDLLFIMLDQMDPEQDREISDHVLRMHQYRAPGEQDGDALPLGSSVDILATDDPDFTQDDQQDTRIYEKHDSLLHGTKKKKEKMVSAAFMKKYIHVAKIIKPTLTQESAAYIAEEYSRLRSQDSMSSDTARTSPVTARTLETLIRLATAHAKARMSKTVDLQDAEEAVELVQYAYFKKVLEKEKKRKKASEDESDLEDEEEKSQEDTEQKRKRRKTHAKDGESYDPYDFSEAETQMPQVHTPKTDDSQEKTDDSQETQDSQKVELSEPRLKAFKAALLEVFQEAHEQSVGMLHLTESINRNREEPFSSEEIQACLSRMQDDNQVMVSEGIVFLI", "partner": "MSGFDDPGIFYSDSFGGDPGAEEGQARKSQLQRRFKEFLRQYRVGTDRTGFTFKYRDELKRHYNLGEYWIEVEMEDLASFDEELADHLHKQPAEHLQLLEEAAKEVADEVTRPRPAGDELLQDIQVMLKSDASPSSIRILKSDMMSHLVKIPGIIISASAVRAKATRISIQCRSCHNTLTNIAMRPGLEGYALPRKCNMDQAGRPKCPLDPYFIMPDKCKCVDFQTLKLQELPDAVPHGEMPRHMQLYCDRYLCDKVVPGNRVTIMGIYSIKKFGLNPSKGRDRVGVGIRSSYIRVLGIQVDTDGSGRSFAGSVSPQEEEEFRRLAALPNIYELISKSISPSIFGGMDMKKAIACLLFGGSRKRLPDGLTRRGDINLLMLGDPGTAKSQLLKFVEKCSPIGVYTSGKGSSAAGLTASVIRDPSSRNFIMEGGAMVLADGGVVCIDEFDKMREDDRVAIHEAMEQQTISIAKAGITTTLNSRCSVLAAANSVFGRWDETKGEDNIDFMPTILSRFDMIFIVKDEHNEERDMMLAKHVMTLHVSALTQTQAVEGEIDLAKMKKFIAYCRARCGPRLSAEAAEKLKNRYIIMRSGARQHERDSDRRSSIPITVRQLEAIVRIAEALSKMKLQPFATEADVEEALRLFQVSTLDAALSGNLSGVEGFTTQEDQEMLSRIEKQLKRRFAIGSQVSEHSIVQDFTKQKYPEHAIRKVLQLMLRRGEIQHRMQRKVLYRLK"}, "B2": {"name": "DNA replication licensing factor MCM3 (Mus musculus), P25206 (parent)", "chain": "B1 chain"}}}
{"variants_of": "B1", "conditions": "with mcm5_mouse Mcm5, P49718"}
{"variant": "S112A", "effect of a mutation on the interaction": "decreasing interaction"}
{"variant": "S112A;S611A", "effect of a mutation on the interaction": "decreasing interaction"}
{"variant": "S112A;T464A;S611A;T719A", "effect of a mutation on the interaction": "disrupting interaction"}
{"variant": "S112A;T719A", "effect of a mutation on the interaction": "decreasing interaction"}
{"variants_of": "B2", "conditions": "with mcm2_mouse Mcm2, P97310"}
{"variant": "S112A", "effect of a mutation on the interaction": "disrupting interaction"}
{"variants_of": "B2", "conditions": "with mcm7_mouse Mcm7, Q61881"}
{"variant": "S112A", "effect of a mutation on the interaction": "disrupting interaction"}
